Laboratory results as given in US20240216557A1 (Memorial Sloan Kettering, published 2024).
Substitutions are numbered along the chain they refer to.

Tests used:
[1] = biological target: T1, DLL3 on H82 xenograft tumor cells (UniProt Q9NYJ7 27-618, limits assumed); assay: immunoPET imaging of athymic mice bearing right flank subcutaneous H82 xenografts after tail vein injection of the Zr-89 labelled antibody; time point not printed on the sheet
T1 construct: whole, on cells; H82 is a human SCLC line by general knowledge
T1 sequence (looked up): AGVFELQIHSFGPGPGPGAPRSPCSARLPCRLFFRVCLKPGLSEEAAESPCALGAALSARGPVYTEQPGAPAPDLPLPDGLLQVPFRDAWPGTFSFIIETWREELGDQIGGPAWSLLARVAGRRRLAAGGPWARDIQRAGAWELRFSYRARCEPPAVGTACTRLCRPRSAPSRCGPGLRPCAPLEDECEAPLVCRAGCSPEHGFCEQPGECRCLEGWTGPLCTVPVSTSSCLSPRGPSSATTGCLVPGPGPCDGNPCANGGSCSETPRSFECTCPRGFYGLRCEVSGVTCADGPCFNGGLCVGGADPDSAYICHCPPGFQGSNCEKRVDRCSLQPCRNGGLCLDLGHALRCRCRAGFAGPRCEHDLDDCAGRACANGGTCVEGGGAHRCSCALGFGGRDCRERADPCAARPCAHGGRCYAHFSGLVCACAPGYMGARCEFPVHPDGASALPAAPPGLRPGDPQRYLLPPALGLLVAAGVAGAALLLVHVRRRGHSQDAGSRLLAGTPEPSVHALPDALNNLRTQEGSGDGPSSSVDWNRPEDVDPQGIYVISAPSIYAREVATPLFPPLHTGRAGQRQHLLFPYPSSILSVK
Protocol: (§1) To ensure adequate binding to DLL3 in vivo, the three antibodies were first bioconjugated to p-SCN-Bn-DFO chelators and then radiolabeled with Zr-89 for injection via tail vein into athymic female mice bearing right flank subcutaneous H82 xenografts (250-300 Ci, 30 μg). ImmunoPET imaging was performed every 24 h until 120 h, when a terminal ex vivo biodistribution study was performed.

[2] = biological target: T1, DLL3 on H82 xenograft tumor cells; assay: immunoPET and ex vivo biodistribution of the Zr-89 labeled antibody in mice with H82 xenografts
Protocol: as §1

[3] = biological target: T1, DLL3 on H82 xenograft tumor cells; assay: immunoPET imaging of athymic mice bearing right flank subcutaneous H82 xenografts after tail vein injection of the Zr-89 labelled antibody; time point not printed on the sheet; remark: listed apart in the source
Protocol: as §1

B1: [89Zr]Zr-DFO-J8 antibody (antibody, V domains shown)
VH: QVHLVQSGAEVKKPGASVKVSCKASGYTFTIYYIHWVRQAPGQGLEWMGIINPSGGSTSYAQKFQGRVTMTRDTSTSTVYMELSSLRSEDTAVYYCSGNDYVDYVTTDYYGMDVWGQGTTVTVSS
VL: DIQMTQSPSSLSASVGDRVTITCRASQGISNYLAWFQQKPGKAPKSLIYAASSLQSGVPSKFSGSGSGTDFTLTISSLQPEDFATYYCQQYNSSPYTFGQGTKLEIK
modifications: p-SCN-Bn-DFO chelator bioconjugated to the antibody (sites not given), radiolabeled with Zr-89
notes: also called J8 (monoclonal IgG4, DFO-conjugated, Zr-89 labeled)
[1]
  binding result: binds

B2: E9 monoclonal IgG4 antibody bioconjugated to p-SCN-Bn-DFO and radiolabeled with Zr-89 (antibody, V domains shown)
VH: QVQLVQSGAEVKKPGASVKVSCKASGYTFTSYYMHWVRQAPGQGLEWMGVINSSGGSTSYAQKFQGRVTMTRDTSTSTVYMDLSSLRSEDTAVYYCARGYCTNGVYYDEDFDYWGQGTLVTVSS
VL: B1 VL with N31H, K45T, S94Y, Y96L, Q100G, L104V
modifications: p-SCN-Bn-DFO chelator bioconjugated to the antibody (sites not given), radiolabeled with Zr-89
[2]
  binding result: binds

B3: [89Zr]Zr-DFO-A18 antibody (antibody, V domains shown)
VH: QVTLRESGPALVKSTQTLTLTCTFSGFSLSTSGMCVSWIRQTPGKALEWLALIDWDDNKYYSTSLKTRLIISKDTSKNQVVLTMTNMEPVDTATYYCARIRGYSGSYDAFDIWGQGTMVTVSS
VL: DIVMTQSPLSLPVTPGEPASISCRSSQSLLHSNGYNYLDWYLQKPGQSPHILLYLGSNRAPGVPDRFSGSGSGTDFTLKISRVEAEDVGVYYCMQALQTPFTFGPGTKVDIK
modifications: p-SCN-Bn-DFO chelator bioconjugated to the antibody (sites not given), radiolabeled with Zr-89
notes: also called A18 (monoclonal IgG4, DFO-conjugated, Zr-89 labeled)
[3]
  binding result: binds
